{"source": "patent US20120014950A1", "about": "“Antibodies That Specifically Bind to DR3” (Xencor, Inc., priority 2010, published 2012)", "key": {"primary human T cells": {"system": "primary human T cells", "experiment": "Primary human T cell assay (proliferation, cytokine secretion)", "assay_type": "cell-based", "description": "A primary human T cell assay can be performed using standard methods known in the art. Briefly, primary human T cells are incubated with 100 ng/mL human TL1A ligand and appropriate concentrations of the antibody molecules to be tested for 72 hours. This incubation is followed by a 24 hour incubation with 5 ng/mL IL-2. Proliferation is measured by a standard luminescent protocol. The amount of cytokine secreted is determined by standard methods in the art.\nA primary human T cell assay was performed to determine the effect of the 11H08-Fab-HSA on proliferation and the secretion of IFNγ or GM-CSF from cells treated with TL1A. […] 3 μg/mL 11H08-Fab-HSA, 3 μg/mL hDR3-Fc, or 3 μg/mL full length 11H08 immunoglobulin were used in this experiment. Results were compared to a set of cells treated only with media and cells that were treated only with 100 ng/mL TL1A, as indicated."}, "human DR3 [1]": {"target": "T1, human DR3 (Homo sapiens, UniProt Q93038)", "T1 sequence (Q93038 25-417)": "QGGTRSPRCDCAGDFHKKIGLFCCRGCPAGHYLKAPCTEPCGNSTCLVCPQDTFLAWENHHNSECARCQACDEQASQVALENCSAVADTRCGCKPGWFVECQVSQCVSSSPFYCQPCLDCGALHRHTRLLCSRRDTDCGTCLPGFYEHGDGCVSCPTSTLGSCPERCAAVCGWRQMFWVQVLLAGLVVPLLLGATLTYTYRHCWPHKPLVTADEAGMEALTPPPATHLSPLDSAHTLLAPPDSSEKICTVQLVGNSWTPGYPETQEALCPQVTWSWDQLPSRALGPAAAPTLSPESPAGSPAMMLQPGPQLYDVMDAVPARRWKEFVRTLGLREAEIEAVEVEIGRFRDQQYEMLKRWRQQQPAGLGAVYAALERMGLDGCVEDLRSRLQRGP", "experiment": "TF-1 assay (cell viability, cycloheximide, Cell Titer Glo)", "assay_type": "cell-based", "design": "endogenous in cells; host or cells: TF-1 (premyeloid)", "conditions": "TF-1 cells with cycloheximide; luminescence"}, "human DR3 [2]": {"target": "T1, human DR3", "experiment": "TL1A binding inhibition assay (flow cytometry)", "design": "expressed in transfected cells; host or cells: HEK293F (transient)", "conditions": "HEK293F cells transiently expressing human DR3, 1 μg/mL human TL1A", "description": "The anti-DR3 monoclonal antibody 11H08 was assayed for its ability to inhibit human TL1A binding to human DR3 using techniques known to those skilled in the art. Briefly, HEK293F cells transiently expressing human DR3 were incubated with 1 μg/mL of human TL1A in the presence of either an unrelated antibody (mIgG1) as an isotype control that was known not to bind TL1A or DR3, or an anti-DR3 monoclonal antibody (11H08), for 20 minutes at room temperature. Binding was detected using an anti-TL1A-biotin polyclonal antibody followed by Streptavidin PE. The ability of the anti-DR3 monoclonal antibody to inhibit binding of TL1A to DR3 was measured by flow cytometry."}, "human DR3 [3]": {"target": "T1, human DR3", "experiment": "TF-1 assay (cell viability, cycloheximide, Cell Titer Glo)", "assay_type": "cell-based", "design": "endogenous in cells; host or cells: TF-1 (premyeloid)", "conditions": "TF-1 cells, 10 ng/mL hTL1A and cycloheximide; luminescence", "description": "Treatment of TF-1 cells with human TL1A (the ligand for DR3) in the presence of cycloheximide induces cell death (Migone et al., Immunity 16:479-492 (2002)). A TF-1 assay was used to test the ability of 11H08 to block TL1A activity through the DR3 receptor.\nA TF-1 assay can be performed according to methods known in the art. Briefly, premyeloid TF-1 cells are maintained in 10% FBS (fetal bovine serum), 1×RPMI, 1% Pen-Strep with Glutamine, and 2 ng/mL GM-CSF. The cells are grown until log phase, washed three times in PBS, and incubated with the antibodies to be tested for one hour. After this pre-incubation, between 50,000 and 100,000 cells are seeded per well. The cells are combined with 10 ng/mL hTL1A, 10 μg/mL cycloheximide (Sigma-Aldrich, cat #C1988-1G) and the antibodies to be tested and then incubated for 24 to 72 hours. Cell viability is measured using Cell Titer Glo (Promega, cat #G7570). This assay allows cell viability to be determined by measuring the luminescent signal which is proportional to the amount of ATP present. The ATP is indicative of metabolically active cells and higher luminescence signals reflect greater cell viability.\nIn order to test the effect of 11H08-scFv-HSA and the humanized anti-DR3-Fab molecules, a TF-1 assay was used to test the ability of these various anti-DR3 fragments to block TL1A induced activity. The TF-1 assay was performed as indicated above in Example 5, but where the various anti-DR3 fragments were used instead of the whole 11H08 immunoglobulin as described."}, "[4]": {"conditions": "100 ng/mL hTL1A, 3 μg/mL test molecule"}}, "note": "Entries after “also recorded” stand apart in the source; their conditions may differ."}
{"molecule": "11H08: mouse anti-human DR3 monoclonal antibody, isotype IgG1κ, from hybridoma 11H08; VH SEQ ID NO:7, VL SEQ ID NO:20 (antibody, listed as Mus musculus, V domains shown) VH: EVMLVESGGGLVKPGGSLKLSCAASGFTFTNYAMSWVRQTPEKRLEWVATITSGGSYIYYLDSVKGRFTISRDNAKSTLYLQMSSLRSEDTAIYNCARRKDGNYYYAMDYWGQGTSVTVSS VL: DIVLTQSPASLAVSLGQRATISCRASESVDSYGNSFIHWYQQKAGQPPKLLIYRASNLESGIPARFSGSGSRTDFTLTINPVEADDVATYYCQQSYEDPWTFGGGTKLEIK", "values": [{"measurement": "proliferation and cytokine secretion (agonist activity)", "setting": "primary human T cells; 3 μg/mL antibody alone", "value": "induced TL1A-like activity"}, {"measurement": "TF-1 cell viability / apoptosis induction (agonist, TL1A-like activity)", "setting": "human DR3 [1]", "value": "activated the DR3 receptor, thereby inducing TL1A-like activity"}, {"measurement": "inhibition of human TL1A binding to human DR3", "setting": "human DR3 [2]", "value": "inhibited human TL1A binding to the human DR3 receptor"}]}
{"molecule": "11H08-Fab: Fab of 11H08 VH/VL (SEQ ID NOs:7, 20) with human IgG1 CH1 and Cκ; parental anti-DR3 molecule (antibody, listed as Mus musculus, V domains shown, human IgG1 CH1 and Ckappa constant domains, parental anti-DR3 molecule) VH: EVMLVESGGGLVKPGGSLKLSCAASGFTFTNYAMSWVRQTPEKRLEWVATITSGGSYIYYLDSVKGRFTISRDNAKSTLYLQMSSLRSEDTAIYNCARRKDGNYYYAMDYWGQGTSVTVSS VL: DIVLTQSPASLAVSLGQRATISCRASESVDSYGNSFIHWYQQKAGQPPKLLIYRASNLESGIPARFSGSGSRTDFTLTINPVEADDVATYYCQQSYEDPWTFGGGTKLEIK", "values": [{"measurement": "inhibition of TL1A-induced apoptosis (TF-1 cell viability)", "setting": "human DR3 [3]", "value": "prevented TL1A-induced apoptosis; also recorded: inhibited TL1A-induced apoptosis in TF-1 cells"}]}
{"molecule": "H1L2-Fab: humanized anti-DR3 Fab, VH H1 (SEQ ID NO:9), VL L2 (SEQ ID NO:22, Leu at Kabat 104) (antibody, V domains shown, Fab constant domains; humanized murine antibody) VH: EVQLVESGGGLVKPGGSLRLSCAASGFTFTNYAMSWVRQAPGQRLEWVSTITSGGSYIYYLDSVKGRFTISRDNAKSTLYLQMNSLRAEDTAVYNCARRKDGNYYYAMDYWGQGTTVTVSS VL: DIVLTQSPSSLSASVGDRVTITCRASESVDSYGNSFIHWYQQKPGQPPKLLIYRASNLESGIPARFSGSGSRTDFTLTISSLQPEDFATYYCQQSYEDPWTFGGGTKXEIK", "values": [{"measurement": "inhibition of TL1A-induced apoptosis (TF-1 cell viability)", "setting": "human DR3 [3]", "value": "inhibited TL1A-induced apoptosis in TF-1 cells"}]}
{"molecule": "H5L2-Fab: humanized anti-DR3 Fab, VH H5 (SEQ ID NO:17), VL L2 (SEQ ID NO:22, Leu at Kabat 104) (antibody, V domains shown, Fab constant domains; humanized murine antibody) VH: EVQLLQSGAEVKKPGASVKVSCKASGFTFTNYAMSWVRQAPGQRLEWVATITSGGSYIYYLDSVKGRFTISRDNAKSTLHLQMNSLRAEDTAVYNCARRKDGNYYYAMDYWGQGTTVTVSS VL: DIVLTQSPSSLSASVGDRVTITCRASESVDSYGNSFIHWYQQKPGQPPKLLIYRASNLESGIPARFSGSGSRTDFTLTISSLQPEDFATYYCQQSYEDPWTFGGGTKXEIK", "values": [{"measurement": "inhibition of TL1A-induced apoptosis (TF-1 cell viability)", "setting": "human DR3 [3]", "value": "inhibited TL1A-induced apoptosis in TF-1 cells"}]}
{"molecule": "hDR3-Fc: human DR3-Fc fusion protein, known to bind TL1A and inhibit activity (protein, left off: a dimerising Fc or GST) QGGTRSPRCDCAGDFHKKIGLFCCRGCPAGHYLKAPCTEPCGNSTCLVCPQDTFLAWENHHNSECARCQACDEQASQVALENCSAVADTRCGCKPGWFVECQVSQCVSSSPFYCQPCLDCGALHRHTRLLCSRRDTDCGTCLPGFYEHGDGCVSCPTSTLGSCPERCAAVCGWRQ", "values": [{"measurement": "TL1A-induced cell proliferation", "setting": "primary human T cells; [4]", "value": "inhibited"}, {"measurement": "TL1A-induced cytokine secretion (IFNγ, GM-CSF)", "setting": "primary human T cells; [4]", "value": "inhibited"}]}
